Laboratory results: US12534533B2, “Anti-chemokine like receptor 1 humanized antibodies and their therapeutic applications” (OSE IMMUNOTHERAPEUTICS, priority 2019, dated 2026)

Tests used:
Mice dendritic cells = test: DCs maturation and differentiation, activation markers by FACS; assay type: cell-based
Procedure: FIG. 1. Effect of the anti-CMKLR1 variants 1G1, 2G1, 3G1 and 4G1 chimeric antibodies on the DCs maturation and differentiation. Mice dendritic cells were incubated during maturation phase (24 h or 48 h) followed by a differentiation phase with excipient or RvE1 or anti-CMKLR1 antibodies variants (mutations on positions 1 and 2 of SEQ ID No. 8, corresponding to the VH-CDR3: 1G1 (LL), 2G1 (LI), 3G1 (IL) or 4G1 (II) or isotype controls (hIgG1 or mIgG)). Cells were then stained for FACS analysis with cell marker antibodies: A. CD80-PE; B. CD86-FITC; C. CD103-PerCPCy5.5; D. I/Ab-APC. Mean of Fluorescence was determined in each condition. E and F represent the viability of the cells measured by FACS using LIVE/DEAD® kit from Life Technologies in each condition after 24 or 48 hours of maturation respectively.
FIG. 16. Study of the myeloid cell activation markers after CMKLR1 pathway activation. Dendritic cells incubated in excipient, RvE1, 2G1 or isotype control (hIgG1) were then stained for FACS analysis with marker antibodies: A. CD80-PE. B. CD86-FITC. C. CD103-PerCPCy5.5. D. CD40-PeCy7. E. I/Ab-APC. Mean of Fluorescence was determined in each condition.
Bone marrow cells were harvested and cultured in RPMI medium supplemented with 10% FBS, glutamine and antibiotics and the dendritic cell differentiation was induced by GM-CSF at 20 ng/ml for 7 days. Then, immature dendritic cells (iDC) were collected and cultured for 24 hours with LPS (100 ng/ml) to induce the maturation from iDC to mDC. Treatments were added during differentiation and maturation at 2 μg/ml.
Dendritic cells were resuspended in PBS-FBS-EDTA and incubated with live and dead (LIVE/DEAD® Fixable Dead Cell Stains Yellow-Life Technologies) for 30 minutes on ice. Staining of CD11c-BV711, CD11b-APCCy7, I/Ab-APC, CD103-PerCPCy5.5, CCR7-V450, CD40-PeCy7, CD80-PE, CD86-FITC (all provided by BD Pharmingen) were performed.

colitis induced by TNBS = test: acute inflammatory colitis model induced by TNBS; assay type: in vivo, mice; conditions: RvE1 1 μg per mouse daily, 2G1 10 μg per mouse; FIG. 3
Procedure: FIG. 3. Effect of an anti-CMKLR1 antibody on a mice acute inflammatory colitis model induced by TNBS. Mice received 200 μL of the haptenating agent TNBS at 5% in 50% ethanol on day 0 and then were injected with isotype control hIgG1 (10 μg per mouse) (x), RvE1 (1 μg per mouse) daily (●), or 2G1 antibody (10 μg per mouse) three times (□) for 5 days, or non-treated (wild type animals) (▴). Mice were sacrificed colon length was measured in each condition.
Colitis was induced in 8-10 weeks-old-C57Bl/6 male mice by intrarectal injection of 200 μL of the haptenating agent TNBS at 5% in 50% ethanol on day 0. Treatments were injected intra-peritoneally; RvE1 (1 μg per mouse) daily for three days, or 2G1 antibody (10 μg per mouse) twice for 3 days. Colitis follow-up consisting of body weight and stool score (0: normal stool; 4: blood in stool) parameters were performed daily (data not represented). When mice are euthanized, colon length representing the pathology severity was measured.

[1] = test system: spontaneous type 1 diabetes in NOD mice; test: type 1 diabetes NOD model; assay type: in vivo; conditions: 20 μg/injection i.p. three times a week for 2 weeks
Text: FIG. 5. Effect of an anti-CMKLR1 antibody on a mice type1 non-obese diabetes model. Mice develop spontaneous diabetes. […] A. Percentage of survival, B. individual representation of blood glucose concentration in mg/dL. C. pooled representation of blood glucose concentration in mg/dL.
8 weeks-old NOD female mice were obtained from Charles River laboratory. These mice develop a spontaneous type 1 diabetes at age between 12 to 20 weeks. The diabetes initiation can be measured by the high glycaemia.

[2] = test system: PMN from healthy volunteers or ANCA patients; test: Neutrophils transmigration through endothelial monolayer (HDMEC transwell); assay type: cell-based, human
Procedure: Endothelial cells were coated and +/−activated with 100 U/mL of TNFa overnight. Then PMN were added with or without TNFa at 100 U/mL and Ab for two hours. The transmigrated PMN were collected and analyzed by flow cytometry.
Human endothelial cells (HDMEC) were incubated for 24 h in the transwell coated with gelatin and activated overnight with TNF-alpha at 100 U/mL or without inflammatory conditions. Then, PMN from healthy volunteers or ANCA patients were incubated in transwell containing the monolayer of HDMEC for 4 hours. Antibodies (Iso Ctrl and 2G1) were added at 10 μg/mL+/−TNF-alpha at 100 U/mL during the 4 hours of the transmigration assay. The lower transmigrated part of the transwell was collected and the transmigrated PMN were counted by flow cytometry using counting beads.

AK-7 cells = test: Mesothelioma model survival; assay type: in vivo, mice; conditions: 1 mg/kg three times a week for 3 weeks starting at d4; vs control antibody; FIG. 30
Procedure: AK-7 cells (3M) were injected in the pleural cavity and mice received either Iso ctrl or 2G1 three times a week for 3 weeks starting at d4 at 1 mg/kg.

MC38 CRC cell line = test: CRC model, tumor cell inoculated (MC38 subcutaneously); assay type: in vivo, mice; conditions: FIG. 31A
Procedure: Tumor inoculation was performed with 0.5M of MC38 CRC cell line subcutaneously. Mice were injected three times a week with 1 mg/kg of 2G1 or Ctrl Ab for 3 weeks starting at d4 after tumor induction. Cyclophosphamide was injected I.P. once at 100 mg/kg. Tumor development was assessed three times a week and survival curves were established when mice developed a tumor >1000 mm3.

[3] = test system: lesions in the central nervous system induced by MOG peptide; test: autoimmune encephalomyelitis experimental model (EAE); assay type: in vivo
Text: Lesions in the central nervous system were induced by injection of the immunogenic MOG peptide combined with adjuvants.

B1: 2G1: parental chimeric anti-CMKLR1 antibody: heavy chain variable domain SEQ ID No. 37, light chain variable domain SEQ ID No. 49 (antibody, V domains shown)
VH: EVQLVASGGGLVQPGGSLKLSCAASGFTFSSYGMSWVRQTPDRRLELVATINRYGGSTYYPDSVKGRFTISRDNAKNTLYLQMSSLKSEDTAMYYCPRLIYYGNEGDSWGQGTTLTVSS
VL: QIVLTQSPAIMSASPGEKVTMTCSASSSVSFMHWYQQKSGTSPKRWIYDTTKLTSGVPARFSGSGSGTFYSLTISSMEAEDAATYYCQQWNSKPPLTFGPGTKLELKR
For B1, the viability of cells (Mice dendritic cells; LIVE/DEAD kit, after 24 or 48 hours of maturation, FIGS. 1E and 1F) was “enhanced”, the “expression of CD80, CD86, CD103, CD40 and IAb” value (Mice dendritic cells; compared to the excipient or isotype control, FIG. 16) was “strong decrease” and the “DCs activation and/or maturation (DCs expressing CD103 and IAb)” value (Mice dendritic cells; maturation 24 h or 48 h, FIG. 1) was “inhibit DCs activation and/or maturation in a stronger manner than other synthetized antibodies”. For the same molecule, the colon length (colitis induced by TNBS) was “the same as normal animal”, the Percentage of survival ([1]; FIG. 5A) was “better survival percentage” and the “glycaemia (blood glucose concentration)” value ([1]; FIG. 5B-C) was “almost normal glycaemia”. The “transmigration capability of neutrophils” value ([2]; 10 μg/mL, compared to control compounds, FIG. 28A) was “lower transmigration capability”, the “PMN transmigration through endothelial monolayer under inflammatory condition” value ([2]; PMN and endothelial cells activated with TNFa, healthy volunteers and patients, FIG. 28B) was “avoids PMN transmigration” and the survival rate (AK-7 cells) was “higher survival rate”. For the same molecule, the tumor volume (MC38 CRC cell line; 1 mg/kg three times a week for 3 weeks starting at d4, vs control antibody) was “reduced”, the remission (MC38 CRC cell line; in several cases) was “complete remission” and the Weight variation overtime ([3]; curative administration, 1 mg/kg from clinical score 2, FIG. 32A) was “does not lead to the reduction of the weight”. For the same molecule, the “illness score lower than control” value ([3]; ten-day posttreatment) was “approximately 30%” and the illness score ([3]; vs control antibody, FIG. 32B) was “significantly reduced”.
